Measurements taken from patent publication US20040167074A1, “Therapeutic applications of mFLINT polypeptides” (priority 1998, published 2004).

What was measured:
[1] = molecular target: Fas; assay: ELISA: 100 ng Fas adsorbed, FasL 100 ng, anti-Flag M2 detection
[2] = molecular target: mrecFas; assay: ELISA: 100 ng mrecFas adsorbed, FasL 50 ng, anti-Flag M2 detection
[3] = molecular target: mrecFas; assay: ELISA: 100 ng mrecFas adsorbed, FasL 100 ng, anti-Flag M2 detection
[4] = molecular target: mrecFas; assay: ELISA: 100 ng mrecFas adsorbed, FasL 1 ng, anti-Flag M2 detection
[5] = molecular target: T1, mFLINT (mature human FLINT, non-Flagged, made according to Examples 8 and 9) (human) (UniProt O95407); assay: ELISA: 100 ng FLINT adsorbed, FasL 5.0 ng, anti-Flag M2 detection
T1 sequence (chain, glycosylated (p-0200)): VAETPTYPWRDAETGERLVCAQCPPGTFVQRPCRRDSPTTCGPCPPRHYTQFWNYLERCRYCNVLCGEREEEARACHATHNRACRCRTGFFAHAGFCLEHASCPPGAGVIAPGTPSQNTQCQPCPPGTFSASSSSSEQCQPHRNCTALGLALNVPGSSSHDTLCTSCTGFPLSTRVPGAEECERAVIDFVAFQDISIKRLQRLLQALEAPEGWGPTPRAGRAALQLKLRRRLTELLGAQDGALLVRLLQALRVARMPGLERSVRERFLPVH

[6] = molecular target: T1, mFLINT (mature human FLINT, non-Flagged, made according to Examples 8 and 9) (human); assay: ELISA: 100 ng FLINT adsorbed, FasL 10 ng, anti-Flag M2 detection
[7] = molecular target: T1, mFLINT (mature human FLINT, non-Flagged, made according to Examples 8 and 9) (human); assay: ELISA: 100 ng FLINT adsorbed, FasL 100 ng, anti-Flag M2 detection
[8] = molecular target: Fas; assay: ELISA: 100 ng Fas adsorbed, FasL 0.5 ng, anti-Flag M2 detection
[9] = molecular target: mrecFas; assay: ELISA: 100 ng mrecFas adsorbed, FasL 5 ng, anti-Flag M2 detection
[10] = molecular target: T1, mFLINT (mature human FLINT, non-Flagged, made according to Examples 8 and 9) (human); assay: ELISA: 100 ng FLINT adsorbed, FasL 0.1 ng, anti-Flag M2 detection
[11] = molecular target: T1, mFLINT (mature human FLINT, non-Flagged, made according to Examples 8 and 9) (human); assay: ELISA: 100 ng FLINT adsorbed, FasL 1.0 ng, anti-Flag M2 detection
[12] = molecular target: T1, mFLINT (mature human FLINT, non-Flagged, made according to Examples 8 and 9) (human); assay: ELISA: 100 ng FLINT adsorbed, FasL 0.5 ng, anti-Flag M2 detection
[13] = molecular target: Fas; assay: ELISA: 100 ng Fas adsorbed, FasL 1.0 ng, anti-Flag M2 detection
[14] = molecular target: Fas; assay: ELISA: 100 ng Fas adsorbed, FasL 50 ng, anti-Flag M2 detection
[15] = molecular target: Fas; assay: ELISA: 100 ng Fas adsorbed, FasL 0.1 ng, anti-Flag M2 detection
[16] = molecular target: T1, mFLINT (mature human FLINT, non-Flagged, made according to Examples 8 and 9) (human); assay: ELISA: 100 ng FLINT adsorbed, FasL 50 ng, anti-Flag M2 detection
[17] = molecular target: mrecFas; assay: ELISA: 100 ng mrecFas adsorbed, FasL 10 ng, anti-Flag M2 detection
[18] = molecular target: Fas; assay: ELISA: 100 ng Fas adsorbed, FasL 10 ng, anti-Flag M2 detection
[19] = molecular target: mrecFas; assay: ELISA: 100 ng mrecFas adsorbed, FasL 500 ng, anti-Flag M2 detection
[20] = molecular target: Fas; assay: ELISA: 100 ng Fas adsorbed, FasL 5.0 ng, anti-Flag M2 detection

Fas, sequence (P25445 whole entry): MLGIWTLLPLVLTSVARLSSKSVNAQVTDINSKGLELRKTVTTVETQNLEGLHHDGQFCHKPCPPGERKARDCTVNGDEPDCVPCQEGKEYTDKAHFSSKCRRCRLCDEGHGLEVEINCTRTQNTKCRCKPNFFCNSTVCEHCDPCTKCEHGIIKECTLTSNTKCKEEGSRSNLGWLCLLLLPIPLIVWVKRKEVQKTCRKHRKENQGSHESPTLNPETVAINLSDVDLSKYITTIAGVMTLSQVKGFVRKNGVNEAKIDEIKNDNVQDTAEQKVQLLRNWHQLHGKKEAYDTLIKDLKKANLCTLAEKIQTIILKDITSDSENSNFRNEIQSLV
hFasLigand (Flag-tagged), sequence (P48023 103-281 limits assumed): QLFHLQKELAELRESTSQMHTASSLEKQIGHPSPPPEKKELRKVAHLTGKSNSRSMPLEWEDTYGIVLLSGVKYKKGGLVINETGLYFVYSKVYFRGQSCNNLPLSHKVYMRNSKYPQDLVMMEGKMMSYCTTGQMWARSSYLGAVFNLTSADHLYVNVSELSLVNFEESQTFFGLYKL

Fas OD, 405 nM [1]: 0.18 OD, 405 nM
OD, 405 nM [2]: 0.7 OD, 405 nM
OD, 405 nM [3]: 1.2 OD, 405 nM
OD, 405 nM [4]: 0.1 OD, 405 nM
FLINT OD [5]: 0.04 OD, 405 nM
FLINT OD [6]: 0.12 OD, 405 nM
FLINT OD [7]: 0.78 OD, 405 nM
Fas OD, 405 nM [8]: 0 OD, 405 nM
OD, 405 nM [9]: 0.2 OD, 405 nM
FLINT OD [10]: 0 OD, 405 nM
FLINT OD [11]: 0.02 OD, 405 nM
FLINT OD [12]: 0 OD, 405 nM
Fas OD, 405 nM [13]: 0 OD, 405 nM
Fas OD, 405 nM [14]: 0.045 OD, 405 nM
Fas OD, 405 nM [15]: 0 OD, 405 nM
FLINT OD [16]: 0.28 OD, 405 nM
OD, 405 nM [17]: 0.3 OD, 405 nM
Fas OD, 405 nM [18]: 0.03 OD, 405 nM
OD, 405 nM [19]: 1.6 OD, 405 nM
Fas OD, 405 nM [20]: 0.01 OD, 405 nM
Substance: hFasLigand (Flag-tagged) (from UniProt P48023)
